# Laboratory results as given in US20060292565A1.
# Target: stimulatory G-protein, Gs
substance,measurement,value
Gly-389 beta-1 adrenergic receptor,[35S]GTPγS binding in the presence of 10 µM isoproterenol,770000 dpm/mg
